Assay results from patent publication US20090042209A1 (NOX TECHNOLOGIES, published 2009).

Target: T1, albumin (serum) (human, UniProt P02768 25-609)
T1 construct: Present in the serum sample on the 2-D blot; also called unreactive albumin
Test: 2-D gel electrophoresis immunoblot of pooled cancer sera, scFv with anti-S alkaline phosphatase detection
From the text: FIG. 1 provides the results of analytical 2-D gel electrophoresis of ECTO-NOX enriched serum proteins from a preparation of sera pooled from cancer patients (breast, ovarian, lung and colon) concentrated by nickel agarose precipitation, followed by immunoblots analysis. Separation in the first dimension was by isoelectric focusing and in the second dimension by SDS-PAGE (using ampholytes over the pH range of 3 to 10 and 10% polyacrylamide gel). For interpretative purposes, the gel is divided into quadrants I-IV with unreactive albumin (albumin) at the center. Detection was with recombinant anti-tNOX single chain variable region (scFv) antibody (MAB 12.1 scFv) carrying an S-tag followed by alkaline phosphatase-liked anti S (Novagen cat. # 69598-3 or equivalent product) with Western Blue NBT substrate (Promega, Madison, Wis; Cat. No. S3841 or equivalent product). Reactive proteins appear reddish blue.

T1 sequence (P02768 25-609 limits assumed): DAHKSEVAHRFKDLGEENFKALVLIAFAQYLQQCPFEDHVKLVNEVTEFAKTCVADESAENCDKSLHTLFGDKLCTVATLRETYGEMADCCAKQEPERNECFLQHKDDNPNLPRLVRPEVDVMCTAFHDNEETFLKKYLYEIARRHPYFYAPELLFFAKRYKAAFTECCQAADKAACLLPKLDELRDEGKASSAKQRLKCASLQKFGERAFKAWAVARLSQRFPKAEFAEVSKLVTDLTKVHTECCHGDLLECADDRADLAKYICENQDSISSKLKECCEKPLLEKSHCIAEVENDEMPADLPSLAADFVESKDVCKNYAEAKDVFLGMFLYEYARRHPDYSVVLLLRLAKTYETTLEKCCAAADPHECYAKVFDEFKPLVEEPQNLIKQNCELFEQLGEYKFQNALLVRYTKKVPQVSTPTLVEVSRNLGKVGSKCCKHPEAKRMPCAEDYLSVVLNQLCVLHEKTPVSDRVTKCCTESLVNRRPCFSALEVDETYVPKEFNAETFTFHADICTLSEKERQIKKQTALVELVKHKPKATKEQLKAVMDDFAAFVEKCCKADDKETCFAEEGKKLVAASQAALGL

B1: recombinant anti-tNOX single chain variable region (scFv) antibody (MAB 12.1 scFv) carrying an S-tag (scFv)
scFv: EVKLQESGTEVVKPGASVKLSCKASGYIFTSYDIDWVRQTPEQGLEWIGWIFPGEGSTEYNEKFKGRATLSVDKSSSTAYMELTRLTSEDSAVYFCARGDYYRRYFDLWGQGTTVTVSSGGGGSGGGGSGGGGSENVLTQSPAIMSASPGERVTMTCSASSSIRYIYWYQQKPGSSPRLLIYDTSNVAPGVPFRFSGSGSGTSYSLTINRMEAEDAATYYCQEWSGYPYTFGGGTKLELKAKETAAAKFERQHMDS
notes: Expressed in E. coli from pET11-ScFv(S) and renatured from inclusion bodies; also called ScFv(S); NTI ScFv MAB 12.1
- binding result: no binding
